Tests used:
[1] = tested on: Immunoglobulin G (total IgG); test: pulldown; conditions: SB18, 37C
[2] = tested on: Immunoglobulin G (total IgG) (Homo sapiens); test: filter
[3] = n (P) = NapdU, SB18, 5 mM MgCl2, 37 C
[4] = n (P) = 2NapdU, SB18, 5 mM MgCl2, 37 C
[5] = n (P) = NapdU, considered no binding
[6] = n (P) = 2NapdU, considered no binding

ACGATGGCGAACTCCCTGAATGCTCTTGTCTTAAGTCCCCAACA [14125-144_6]
Kd ([1]; P = NapdU, bead partitioning): 7.49 nM

ACGATTTTCAGTTGGATCCAGTACCTGGCTGGAGAGAA [5406-56_9]
Kd ([1]; P = NapdU, bead partitioning): > 1000 nM

ACGGTACGATTTTCAGTTGGATCCAGTAC [5406-56_46]
Kd [2, 3]: 8.14 nM

ACGGTACGATTTTCAGTTGGATCCAGTACC [5406-56_40]
Kd [2, 3]: 4.32 nM

ACGGTACGATTTTCAGTTGGATCCAGTACCT [5406-56_34]
Kd [2, 3]: 3.36 nM

ACGGTACGATTTTCAGTTGGATCCAGTACCTG [5406-56_28]
Kd [2, 3]: 3.64 nM

ACGGTACGATTTTCAGTTGGATCCAGTACCTGG [5406-56_22]
Kd ([2]; n (P) = NapdU, Zorbax bead partitioning, SB18, 5 mM MgCl2, 37 C, printed sequence identical to _21 to _25, length unclear): 4.93 nM

ACTCCACATCCAAGACTGCGGTTACCTTGTAGGCGATTATGGGCAG [5334-8_5]
Kd [2, 4]: 5.92 nM

ACTCCCTGAATGCTCTTGTCTTAAGTCCCCAACA [14125-144_11]
Kd [2, 5]: > 1000 nM

ACTGCGGTTACCTTGTAGGCGATTATGGGCAG [5334-8_22]
Kd [2, 4]: 5.77 nM

AGACTGCGGTTACCTTGTAGGCGATT [5334-8_33]
Kd [2, 6]: > 1000 nM

AGACTGCGGTTACCTTGTAGGCGATTAT [5334-8_32]
Kd [2, 6]: > 1000 nM

AGACTGCGGTTACCTTGTAGGCGATTATGG [5334-8_31]
Kd ([1]; P = 2NapdU, bead partitioning): > 1000 nM

AGACTGCGGTTACCTTGTAGGCGATTATGGG [5334-8_30]
Kd ([1]; P = 2NapdU, bead partitioning): 80.9 nM

AGACTGCGGTTACCTTGTAGGCGATTATGGGC [5334-8_29]
Kd ([1]; P = 2NapdU, bead partitioning): 15.6 nM

AGACTGCGGTTACCTTGTAGGCGATTATGGGCA [5334-8_28]
Kd [2, 4]: 8.45 nM

AGACTGCGGTTACCTTGTAGGCGATTATGGGCAG [5334-8_11]
Kd ([1]; P = 2NapdU, bead partitioning): 4.69 nM

ATGGCGAACTCCCTGAATGCTCTTGTC [14125-144_37]
Kd [2, 5]: > 1000 nM

ATGGCGAACTCCCTGAATGCTCTTGTCT [14125-144_33]
Kd [2, 5]: > 1000 nM

ATGGCGAACTCCCTGAATGCTCTTGTCTT [14125-144_29]
Kd [2, 3]: 11.6 nM

ATGGCGAACTCCCTGAATGCTCTTGTCTTA [14125-144_25]
Kd [2, 3]: 7.55 nM

ATGGCGAACTCCCTGAATGCTCTTGTCTTAA [14125-144_21]
Kd [2, 3]: 5.5 nM

CAAGACTGCGGTTACCTTGTAGGCGATTATGGGCAG [5334-8_10]
Kd [2, 4]: 5.38 nM

CACATCCAAGACTGCGGTTACCTTGTAGGCGATTATGGGCAG [5334-8_7]
Kd [2, 4]: 5.89 nM

CATACGGTACGATTTTCAGTTGGATCCAGTACCTGGCTGGAGAGAA [5406-56_5]
Kd ([1]; P = NapdU, bead partitioning): 7.91 nM

CATCCAAGACTGCGGTTACCTTGTAGGCGATTATGGGCAG [5334-8_8]
Kd [2, 4]: 9.69 nM

CCTCCATACGGTACGATTTTCAGTTGGATCCAGT [5406-56_19]
Kd ([1]; P = NapdU, bead partitioning): > 1000 nM

CCTCCATACGGTACGATTTTCAGTTGGATCCAGTAC [5406-56_18]
Kd ([1]; P = NapdU, bead partitioning): 42.2 nM

CCTCCATACGGTACGATTTTCAGTTGGATCCAGTACCT [5406-56_17]
Kd ([1]; P = NapdU, bead partitioning): 4.14 nM

CCTCCATACGGTACGATTTTCAGTTGGATCCAGTACCTGG [5406-56_16]
Kd ([1]; P = NapdU, bead partitioning): 2.58 nM

CCTCCATACGGTACGATTTTCAGTTGGATCCAGTACCTGGCT [5406-56_15]
Kd ([1]; P = NapdU, bead partitioning): 4.64 nM

CCTCCATACGGTACGATTTTCAGTTGGATCCAGTACCTGGCTGG [5406-56_14]
Kd ([1]; P = NapdU, bead partitioning): 3 nM

CCTCCATACGGTACGATTTTCAGTTGGATCCAGTACCTGGCTGGAG [5406-56_13]
Kd ([1]; P = NapdU, bead partitioning): 2.61 nM

CCTCCATACGGTACGATTTTCAGTTGGATCCAGTACCTGGCTGGAGAG [5406-56_12]
Kd ([1]; P = NapdU, bead partitioning): 2.88 nM

CGGCACTCCACATCCAAGACTGCGGTTACCTTGT [5334-8_19]
Kd ([1]; P = 2NapdU, bead partitioning): > 1000 nM

CGGCACTCCACATCCAAGACTGCGGTTACCTTGTAG [5334-8_18]
Kd [2, 6]: > 1000 nM

CGGCACTCCACATCCAAGACTGCGGTTACCTTGTAGGC [5334-8_17]
Kd [2, 6]: > 1000 nM

CGGCACTCCACATCCAAGACTGCGGTTACCTTGTAGGCGA [5334-8_16]
Kd [2, 6]: > 1000 nM

CGGCACTCCACATCCAAGACTGCGGTTACCTTGTAGGCGATT [5334-8_15]
Kd ([1]; P = 2NapdU, bead partitioning): > 1000 nM

CGGCACTCCACATCCAAGACTGCGGTTACCTTGTAGGCGATTAT [5334-8_14]
Kd [2, 6]: > 1000 nM

CGGCACTCCACATCCAAGACTGCGGTTACCTTGTAGGCGATTATGG [5334-8_13]
Kd ([1]; P = 2NapdU, bead partitioning): > 1000 nM

CGGCACTCCACATCCAAGACTGCGGTTACCTTGTAGGCGATTATGGGC [5334-8_12]
Kd ([1]; P = 2NapdU, bead partitioning): 25.8 nM

CGGTACGATTTTCAGTTGGATCCAGTAC [5406-56_47]
Kd [2, 3]: 5.7 nM

CGGTACGATTTTCAGTTGGATCCAGTACC [5406-56_41]
Kd ([1]; P = NapdU, bead partitioning): 2.74 nM

CGGTACGATTTTCAGTTGGATCCAGTACCT [5406-56_35]
Kd [2, 3]: 3.42 nM

CGGTACGATTTTCAGTTGGATCCAGTACCTG [5406-56_29]
Kd [2, 3]: 3.49 nM

CGGTACGATTTTCAGTTGGATCCAGTACCTGG [5406-56_23]
Kd ([2]; n (P) = NapdU, SB18, 5 mM MgCl2, 37 C, sequence identical to _21 to _25): 5.48 nM

CGGTACGATTTTCAGTTGGATCCAGTACCTGGCTGGAGAGAA [5406-56_7]
Kd ([1]; P = NapdU, bead partitioning): 13 nM

CGGTTACCTTGTAGGCGATTATGGGCAG [5334-8_26]
Kd ([1]; P = 2NapdU, bead partitioning): > 1000 nM

CTGCACGATGGCGAACTCCCTGAATGCTCTTGTCTTAAGTCCCCAACA [14125-144_4]
Kd [2, 3]: 10.5 nM

CTGCGGTTACCTTGTAGGCGATTATGGGCAG [5334-8_23]
Kd ([1]; P = 2NapdU, bead partitioning): 4.04 nM

GAACTCCCTGAATGCTCTTGTCTTAAGTCCCCAACA [14125-144_10]
Kd ([1]; P = NapdU, bead partitioning): > 1000 nM

GACTGCGGTTACCTTGTAGGCGATTATGGGCAG [5334-8_21]
Kd [2, 4]: 6.77 nM

GATGGCGAACTCCCTGAATGCTCTTGTC [14125-144_36]
Kd [2, 5]: > 1000 nM

GATGGCGAACTCCCTGAATGCTCTTGTCT [14125-144_32]
Kd [2, 5]: > 1000 nM

GATGGCGAACTCCCTGAATGCTCTTGTCTT [14125-144_28]
Kd [2, 3]: 17.2 nM

GATGGCGAACTCCCTGAATGCTCTTGTCTTA [14125-144_24]
Kd [2, 3]: 9.89 nM

GATGGCGAACTCCCTGAATGCTCTTGTCTTAA [14125-144_20]
Kd [2, 3]: 6.67 nM

GATGGCGAACTCCCTGAATGCTCTTGTCTTAAGTCCCCAACA [14125-144_7]
Kd [2, 3]: 6.96 nM

GATTTTCAGTTGGATCCAGTACCTGGCTGGAGAGAA [5406-56_10]
Kd ([1]; P = NapdU, bead partitioning): > 1000 nM

GCACGATGGCGAACTCCCTGAATGCTCTTGTCTTAAGTCCCCAACA [14125-144_5]
Kd [2, 3]: 8.87 nM

GCACTCCACATCCAAGACTGCGGTTACCTTGTAGGCGATTATGGGCAG [5334-8_4]
Kd ([1]; P = 2NapdU, bead partitioning): 17.3 nM

GCCTGCACGATGGCGAACTCCCTGAATGCTCTTGTC [14125-144_18]
Kd ([1]; P = NapdU, bead partitioning): > 1000 nM

GCCTGCACGATGGCGAACTCCCTGAATGCTCTTGTCTT [14125-144_17]
Kd ([1]; P = NapdU, bead partitioning): 15.4 nM

GCCTGCACGATGGCGAACTCCCTGAATGCTCTTGTCTTAAGT [14125-144_15]
Kd ([1]; P = NapdU, bead partitioning): 14.6 nM

GCGAACTCCCTGAATGCTCTTGTCTTAAGTCCCCAACA [14125-144_9]
Kd ([1]; P = NapdU, bead partitioning): > 1000 nM

GCGGTTACCTTGTAGGCGATTATGGGCAG [5334-8_25]
Kd ([1]; P = 2NapdU, bead partitioning): 5.83 nM

GGCGAACTCCCTGAATGCTCTTGTCTT [14125-144_31]
Kd ([1]; P = NapdU, bead partitioning): > 1000 nM

GGCGAACTCCCTGAATGCTCTTGTCTTA [14125-144_27]
Kd ([1]; P = NapdU, bead partitioning): > 1000 nM

GGCGAACTCCCTGAATGCTCTTGTCTTAA [14125-144_23]
Kd ([1]; P = NapdU, bead partitioning): > 1000 nM

GGTTACCTTGTAGGCGATTATGGGCAG [5334-8_27]
Kd ([1]; P = 2NapdU, bead partitioning): 279 nM

GTACGATTTTCAGTTGGATCCAGTAC [5406-56_49]
Kd ([1]; P = NapdU, bead partitioning): 17.6 nM

GTACGATTTTCAGTTGGATCCAGTACCT [5406-56_37]
Kd ([1]; P = NapdU, bead partitioning): 9.44 nM

GTACGATTTTCAGTTGGATCCAGTACCTG [5406-56_31]
Kd ([1]; P = NapdU, bead partitioning): 14.8 nM

GTACGATTTTCAGTTGGATCCAGTACCTGGCTGGAGAGAA [5406-56_8]
Kd ([1]; P = NapdU, bead partitioning): 78.1 nM

TACGATTTTCAGTTGGATCCAGTAC [5406-56_50]
Kd ([1]; P = NapdU, 25-mer core): 18.8 nM

TACGATTTTCAGTTGGATCCAGTACC [5406-56_44]
Kd ([1]; P = NapdU, bead partitioning): 36.2 nM

TACGATTTTCAGTTGGATCCAGTACCT [5406-56_38]
Kd ([1]; P = NapdU, bead partitioning): > 1000 nM

TACGATTTTCAGTTGGATCCAGTACCTG [5406-56_32]
Kd ([1]; P = NapdU, bead partitioning): 75.4 nM

TACGATTTTCAGTTGGATCCAGTACCTGG [5406-56_26]
Kd ([1]; P = NapdU, bead partitioning): 64.3 nM

TACGGTACGATTTTCAGTTGGATCCAGTACCTGG [5406-56_21]
Kd ([1]; P = NapdU, table prints a shorter sequence than the listing for SEQ 18): 8.13 nM

TACGGTACGATTTTCAGTTGGATCCAGTACCTGGCTGGAGAGAA [5406-56_6]
Kd ([1]; P = NapdU, bead partitioning): 9.05 nM

TCCACATCCAAGACTGCGGTTACCTTGTAGGCGATTATGGGCAG [5334-8_6]
Kd ([1]; P = 2NapdU, bead partitioning): 7.89 nM

TCCATACGGTACGATTTTCAGTTGGATCCAGTACCTGGCTGGAGAGAA [5406-56_4]
Kd ([1]; P = NapdU, bead partitioning): 3.11 nM

TGGCGAACTCCCTGAATGCTCTTGTC [14125-144_38]
Kd ([1]; P = NapdU, bead partitioning): > 1000 nM

TGGCGAACTCCCTGAATGCTCTTGTCT [14125-144_34]
Kd ([1]; P = NapdU, bead partitioning): > 1000 nM

TGGCGAACTCCCTGAATGCTCTTGTCTTA [14125-144_26]
Kd ([1]; P = NapdU, bead partitioning): 5.03 nM

TGGCGAACTCCCTGAATGCTCTTGTCTTAA [14125-144_22]
Kd ([1]; P = NapdU, bead partitioning): 3.55 nM

TGGCGAACTCCCTGAATGCTCTTGTCTTAAGTCCCCAACA [14125-144_8]
Kd ([1]; P = NapdU, bead partitioning): 6.82 nM

TTTTCAGTTGGATCCAGTACCTGGCTGGAGAGAA [5406-56_11]
Kd ([1]; P = NapdU, bead partitioning): > 1000 nM
